In test [1] the test system is RNase. Description: Ct value depending on concentration of RNase inhibitor in first heating step (Experimental Example 2). It is filed as biochemical. The settings on record: first heating 37° C. 5 minutes.
The test system of test [2] is RNase. Description: Ct value depending on temperature of first heating step (Experimental Example 3). The settings on record: RNase inhibitor 30 U/rxn, incubation 5 minutes. Type of test: biochemical.

B1: RNase inhibitor: RNase inhibitor (Nanohelix RNase Inhibitor) derived from murine lung (protein, UniProt Q91VI7 1-456, looked up)
Ribonuclease inhibitor: MSLDIQCEQLSDARWTELLPLIQQYEVVRLDDCGLTEVRCKDISSAVQANPALTELSLRTNELGDGGVGLVLQGLQNPTCKIQKLSLQNCGLTEAGCGILPGMLRSLSTLRELHLNDNPMGDAGLKLLCEGLQDPQCRLEKLQLEYCNLTATSCEPLASVLRVKADFKELVLSNNDLHEPGVRILCQGLKDSACQLESLKLENCGITAANCKDLCDVVASKASLQELDLSSNKLGNAGIAALCPGLLLPSCKLRTLWLWECDITAEGCKDLCRVLRAKQSLKELSLASNELKDEGARLLCESLLEPGCQLESLWIKTCSLTAASCPYFCSVLTKSRSLLELQMSSNPLGDEGVQELCKALSQPDTVLRELWLGDCDVTNSGCSSLANVLLANRSLRELDLSNNCMGGPGVLQLLESLKQPSCTLQQLVLYDIYWTNEVEEQLRALEEERPSLRIIS
On to B1, for which the “Ct value as the concentration of the RNase inhibitor increased” value in test [1] (7.5 U/rxn to 45 U/rxn) was “gradually decreased”. In addition, the “Ct value at 52.5 U/rxn” value in test [1] (52.5 U/rxn) is “lower than that at a concentration of 7.5 U/rxn”. In test [2], the “Ct value at first heating temperature of 25° C. to 37° C.” value was “constant” and the “Ct value at first heating temperature of 45° C. or higher” value was “increased”.

(Values after patent US20240344110A1, “COMPOSITION FOR CELL LYSIS AND NUCLEIC ACID EXTRACTION, NUCLEIC ACID EXTRACTION METHOD USING SAME, AND MOLECULAR DIAGNOSTIC METHOD USING SAME” (INVITROS CO., LTD., priority 2021, published 2024).)
